According to paper PMC9636928 (Proceedings of the National Academy of Sciences of the …, 2022):

Molecular target: the molecule itself
Assay: cryo-EM structure

B1: Transmembrane protein 175 (TMEM175), human (natural protein)
chain: MSQPRTPEQALDTPGDCPPGRRDEDAGEGIQCSQRMLSFSDALLSIIATVMILPVTHTEISPEQQFDRSVQRLLATRIAVYLMTFLIVTVAWAAHTRLFQVVGKTDDTLALLNLACMMTITFLPYTFSLMVTFPDVPLGIFLFCVCVIAIGVVQALIVGYAFHFPHLLSPQIQRSAHRALYRRHVLGIVLQGPALCFAAAIFSLFFVPLSYLLMVTVILLPYVSKVTGWCRDRLLGHREPSAHPVEVFSFDLHEPLSKERVEAFSDGVYAIVATLLILDICEDNVPDPKDVKERFSGSLVAALSATGPRFLAYFGSFATVGLLWFAHHSLFLHVRKATRAMGLLNTLSLAFVGGLPLAYQQTSAFARQPRDELERVRVSCTIIFLASIFQLAMWTTALLHQAETLQPSVWFGGREHVLMFAKLALYPCASLLAFASTCLLSRFSVGIFHLMQIAVPCAFLLLRLLVGLALATLRVLRGLARPEHPPPAPTGQDDPQSQLLPAPC
  binding result: binds
